Substitutions are numbered along the chain they refer to. Names and notes keep the numbering of the source.
B1: anti-EphA2 Fab 12 (IgG1 G44C, C233S heavy chain; lambda G100C, C214S light chain), Fab-PEG-DSPE conjugate (Fab, V domains shown)
VH: QVQLVQSGGGLVQPGGSLRLSCAASGFTFSSYAMHWVRQAPGKCLEWVTVISPDGHNTYYADSVKGRFTISRDNSKNTLYLQMNSLRAEDTAVYYCARASVGATGPFDIWGQGTLVTVSS
VL: SSELTQPPSVSVAPGQTVTITCQGDSLRSYYASWYQQKPGTAPKLLIYGENNRPSGVPDRFSGSSSGTSASLTITGAQAEDEADYYCNSRDSSGTHLTVFGCGTKLTVLG
modifications: mal-PEG(2000)-DSPE linker conjugated to the C-terminal cysteine of the heavy chain (Cys in DKTHTCAA)
B2: anti-EphA2 Fab 13 (IgG1 F174C, C233S heavy chain; lambda S176C, C214S light chain), Fab-PEG-DSPE conjugate (Fab, V domains shown)
VH: B1 VH with C44G
VL: B1 VL with C102G
modifications: mal-PEG(2000)-DSPE linker conjugated to the C-terminal cysteine of the heavy chain (Cys in DKTHTCAA)
B3: anti-EphA2 Fab 14 (IgG1 G44C, F174C, C233S heavy chain; lambda G100C, S176C, C214S light chain), Fab-PEG-DSPE conjugate (Fab, V domains shown)
VH: B1 VH
VL: B1 VL
modifications: mal-PEG(2000)-DSPE linker conjugated to the C-terminal cysteine of the heavy chain (Cys in DKTHTCAA)
B4: anti-EphA2 Fab 15 (IgG1 H172E, F174C, C233S heavy chain; lambda T162D, S176C, C214S light chain), Fab-PEG-DSPE conjugate (Fab, V domains shown)
VH: B1 VH with C44G
VL: B1 VL with C102G
modifications: mal-PEG(2000)-DSPE linker conjugated to the C-terminal cysteine of the heavy chain (Cys in DKTHTCAA)
B5: anti-EphA2 Fab 16 (IgG1 H172F, F174C, C233S heavy chain; lambda T162L, S174V, S176C, C214S light chain), Fab-PEG-DSPE conjugate (Fab, V domains shown)
VH: B1 VH with C44G
VL: B1 VL with C102G
modifications: mal-PEG(2000)-DSPE linker conjugated to the C-terminal cysteine of the heavy chain (Cys in DKTHTCAA)
B6: anti-EphA2 Fab 17 (IgG1 G44L, F174C, C233S heavy chain; lambda G100L, S176C, C214S light chain), Fab-PEG-DSPE conjugate (Fab, V domains shown)
VH: B1 VH with C44L
VL: B1 VL with C102L
modifications: mal-PEG(2000)-DSPE linker conjugated to the C-terminal cysteine of the heavy chain (Cys in DKTHTCAA)
B7: anti-EphA2 Fab 18 (IgG1 G44L, H172E, F174C, C233S heavy chain; lambda G100L, T162D, S176C, C214S light chain), Fab-PEG-DSPE conjugate (Fab, V domains shown)
VH: B1 VH with C44L
VL: B1 VL with C102L
modifications: mal-PEG(2000)-DSPE linker conjugated to the C-terminal cysteine of the heavy chain (Cys in DKTHTCAA)
B8: anti-EphA2 Fab 19 (IgG1 G44L, H172F, F174C, C233S heavy chain; lambda G100L, T162L, S174V, S176C, C214S light chain), Fab-PEG-DSPE conjugate (Fab, V domains shown)
VH: B1 VH with C44L
VL: B1 VL with C102L
modifications: mal-PEG(2000)-DSPE linker conjugated to the C-terminal cysteine of the heavy chain (Cys in DKTHTCAA)

Key:
[1] = biological target: T1, Recombinant, Human EphA2 with C-terminal hexahistidine appended (human, UniProt P29317 25-534); test: BLI (Octet Red 96), EphA2-His on anti-His5 sensors, Fab-PEG-DSPE conjugate
T1 construct: Captured on anti-His5 sensors; also called his-tagged recombinant, human EphA
Method: (§1) The Fab-PEG-DSPE conjugates were assayed for EphA2 binding strength using the FortéBIO® Octet® Red 96 system (Pall Corporation) to determine whether conjugation or engineering of the Fab affected binding activity. […] Anti-His5 sensors were first coated with his-tagged recombinant, human EphA (SEQ ID NO:47) at a concentration of 10 μg/ml protein in PBS. The sensors were then incubated in 4 μg/ml of Fab-PEG-DSPE conjugate in PBS. The slope of an association curve between 2-10 seconds was determined and compared across the variants and to the reference conjugate, Fab 11-PEG-PE, which is the anti-EphA2 antibody with wild-type disulfide pairing.

[2] = biological target: T1, Recombinant, Human EphA2 with …; test: BLI (Octet Red96), EphA2-His on anti-His5 sensors, liposomes with inserted conjugate
Method: (§2) The purified liposomes were assayed for EphA2 binding strength by FortéBIO® Octet® Red96 system (Pall) in PBS at 25 μM liposome phospholipid using anti-His5 sensors coated with recombinant human EphA2 with C-terminal hexahistidine (SEQ ID NO:47). The slope of the association curve from 3-20 sec was determined and compared to the slope observed for liposomes with inserted conjugate of the wild type Fab.

[3] = biological target: T1, Recombinant, Human EphA2 with …; test: BLI (Octet Red 96), EphA2-His on anti-His5 sensors, 4 ug/ml Fab-PEG-DSPE conjugate, slope of association curve 2-10 s relative to Fab 11 conjugate
Method: as §1

[4] = biological target: T1, Recombinant, Human EphA2 with …; test: BLI (Octet Red96), EphA2-His on anti-His5 sensors, doxorubicin liposomes with inserted Fab-PEG-DSPE conjugate at 25 uM phospholipid, slope of association curve 3-20 s relative to Fab 11 liposomes
Method: as §2

T1 sequence (P29317 other isoform, or with tags, fused parts or gaps limits assumed): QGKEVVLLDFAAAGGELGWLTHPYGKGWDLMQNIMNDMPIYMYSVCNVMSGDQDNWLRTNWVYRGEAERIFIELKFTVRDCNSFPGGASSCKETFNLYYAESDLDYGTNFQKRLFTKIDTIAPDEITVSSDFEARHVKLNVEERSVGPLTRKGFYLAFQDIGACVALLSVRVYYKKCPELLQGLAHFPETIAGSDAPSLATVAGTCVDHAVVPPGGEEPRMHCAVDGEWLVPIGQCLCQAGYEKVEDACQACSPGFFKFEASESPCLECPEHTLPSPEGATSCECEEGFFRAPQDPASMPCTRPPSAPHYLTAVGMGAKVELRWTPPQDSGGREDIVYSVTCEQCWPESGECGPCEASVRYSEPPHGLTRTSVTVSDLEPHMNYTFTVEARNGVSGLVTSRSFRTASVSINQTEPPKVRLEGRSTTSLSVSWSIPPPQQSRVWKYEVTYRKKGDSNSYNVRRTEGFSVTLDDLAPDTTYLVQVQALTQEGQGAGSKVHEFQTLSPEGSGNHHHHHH

Row | Binder | binding strength compared to wild-type protein conjugate [1] [%] | EphA2 binding strength compared to control liposomes [2] [%] | Binding strength, % of wild type conjugate [3] | Fab-liposome binding strength, % of control [4]
1 | B1 | 75 | > 80 | 108 % of wild type conjugate | 109 % of control
2 | B2 | 75 | > 80 | 96.9 % of wild type conjugate | 96.5 % of control
3 | B3 | 75 | > 80 | 105 % of wild type conjugate | 120 % of control
4 | B4 | 75 | > 80 | 86 % of wild type conjugate | 102 % of control
5 | B5 | 75 | > 80 | 85 % of wild type conjugate | 89.3 % of control
6 | B6 | 75 | > 80 | 89.7 % of wild type conjugate | 102 % of control
7 | B7 | 75 | > 80 | 75.5 % of wild type conjugate | 99.6 % of control
8 | B8 | 75 | > 80 | 96.8 % of wild type conjugate | 83.3 % of control
